Experiments:
AE.A244 gD+ gp120 N160K = target: T1, AE.A244 gD+ gp120 N160K (HIV-1); assay: ELISA
T1 construct: domain: gp120

D.9009SA V1V2 Tags = assay: ELISA OD405nm, bar chart, antibody concentration not given
SIV CPZ US-1 gp140CF = target: T2, SIV CPZ US-1 gp140CF (SIVcpz); assay: as above
T2 construct: also called US-1 SIVCPZ gp140CF
T2 chain: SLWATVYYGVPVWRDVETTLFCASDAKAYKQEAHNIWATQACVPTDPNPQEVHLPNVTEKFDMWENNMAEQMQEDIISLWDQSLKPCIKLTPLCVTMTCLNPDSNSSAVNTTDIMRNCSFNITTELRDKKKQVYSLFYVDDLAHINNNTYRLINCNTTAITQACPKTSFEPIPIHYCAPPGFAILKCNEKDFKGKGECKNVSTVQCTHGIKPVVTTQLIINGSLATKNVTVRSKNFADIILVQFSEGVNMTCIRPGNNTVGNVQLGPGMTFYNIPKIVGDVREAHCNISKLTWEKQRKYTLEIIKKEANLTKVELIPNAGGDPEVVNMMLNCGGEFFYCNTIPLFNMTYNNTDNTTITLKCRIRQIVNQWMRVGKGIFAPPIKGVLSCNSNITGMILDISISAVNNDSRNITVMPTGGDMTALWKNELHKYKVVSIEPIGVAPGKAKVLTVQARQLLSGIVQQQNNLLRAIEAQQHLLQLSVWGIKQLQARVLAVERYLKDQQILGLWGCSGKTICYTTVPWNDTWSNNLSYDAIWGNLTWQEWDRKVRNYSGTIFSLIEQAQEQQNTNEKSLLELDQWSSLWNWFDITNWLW

AE.97CNG2XF gp140CF = target: T3, AE.97CNG2XF gp140CF (HIV-1); assay: as above
T3 construct: also called E.97CNGX2F gp140CF

A.Q23 V1V2 tags = A.Q23 V1V2 tags (HIV-1); assay: as above
G.con 140CF = target: T4, G.con 140CF; assay: as above
T4 construct: also called G.con gp140CF; G.con.env03 gp140CF

A.9004SS V1V2 Tags = target: T5, A.9004SS V1V2 Tags; assay: as above
T5 V1V2 tags construct: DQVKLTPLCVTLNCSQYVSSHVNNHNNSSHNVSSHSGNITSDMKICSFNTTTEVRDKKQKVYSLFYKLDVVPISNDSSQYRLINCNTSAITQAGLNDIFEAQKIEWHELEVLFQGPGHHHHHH

Con 6 120 = target: T6, Con 6 120; assay: as above
T6 construct: also called Con 6 gp120

B.62357 140C = target: T7, B.62357 140C; assay: as above
T7 construct: also called B.62357 gp140C

B.CaseA V1/V2 Tags = assay: as above
AE.con env03 40CF = target: T8, AE.con env03 40CF; assay: as above
T8 construct: also called AE.con gp140CF; AE.con.env03 gp140CF

gp70 B.CaseA2 V1/V2 [1] = target: T9, gp70 B.CaseA2 V1/V2 (HIV-1 V1V2 on murine leukemia virus gp70); assay: as above
T9 construct: also called B.gp70CaseA2 V1/V2; gp70 B.CaseAV1V2
T9 chain: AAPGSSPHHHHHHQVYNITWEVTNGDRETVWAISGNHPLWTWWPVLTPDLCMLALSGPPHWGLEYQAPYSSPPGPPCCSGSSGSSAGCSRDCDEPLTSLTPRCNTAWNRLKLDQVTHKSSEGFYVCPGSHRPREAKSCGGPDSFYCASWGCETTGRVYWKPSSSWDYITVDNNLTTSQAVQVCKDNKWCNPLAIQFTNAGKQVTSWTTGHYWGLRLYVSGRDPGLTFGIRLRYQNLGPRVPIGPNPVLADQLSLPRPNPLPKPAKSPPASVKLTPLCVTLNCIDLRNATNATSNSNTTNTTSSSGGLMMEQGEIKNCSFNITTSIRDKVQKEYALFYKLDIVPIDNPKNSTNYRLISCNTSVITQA

B.63521_V1V2 Tags [2] = assay: as above
C.CAP206 gp140CF.12 = C.CAP206 gp140CF.12 (HIV-1); assay: as above
B.9021 gp140C = B.9021 gp140C (HIV-1); assay: as above
B.040 gp140C = assay: as above
B.con env03 140CF = target: T10, B.con env03 140CF; assay: as above
T10 construct: also called B.con gp140CF

AE.A244 V1V2 Tags = AE.A244 V1V2 Tags (HIV-1); assay: ELISA; markers as in the legend printed on D00157
gp70 B.CaseA2 V1/V2 [3] = target: T9, gp70 B.CaseA2 V1/V2; assay: ELISA
J08 A.92RW020V1V2 = J08 A.92RW020V1V2 (HIV-1); assay: SPR (BIAcore), mAb captured on anti-Fc surface, V1V2 protein injected as analyte, Synagis surface subtracted, global 1:1 Langmuir fit
B.63521_V1V2 Tags [4] = target: T11, B.63521_V1V2 Tags; assay: ELISA, OD405
T11 Env construct: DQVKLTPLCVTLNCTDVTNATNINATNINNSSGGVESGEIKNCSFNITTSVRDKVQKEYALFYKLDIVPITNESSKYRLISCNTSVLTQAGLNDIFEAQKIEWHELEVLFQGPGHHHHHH

B.con gp140CF = target: T12, B.con gp140CF; assay: ELISA, OD405
T12 construct: also called B.con.env03 gp140CF

B1: CH59 (antibody, V domains shown)
VH: EVQLVESGGGLVQPGRSLRLSCAASGFTFDDGAMHWVRQAPGKGLEWVSGISWNSNIIAYADSVKGRFTISRDNAKNSLYLEMNSLRVEDTALYYCAKDSPRGELPLNYWGQGTLVTVSS
VL: SYELTQPPSVSVSPGQTARITCSGDALPKNYAYWYQQKSGQAPVLVIYEDSKRPSGIPERFSGSSSGTMATLTISGAQVEDEADYYCYSTDSSGNHRVFGGGTKLTVL
notes: also called mAb CH59
0.03 nM: EC50 (AE.A244 gD+ gp120 N160K)

B2: CH59 reverted unmutated ancestor antibody (antibody, V domains shown)
VH: EVQLVESGGGLVQPGRSLRLSCAASGFTFDDYAMHWVRQAPGKGLEWVSGISWNSGSIGYADSVKGRFTISRDNAKNSLYLQMNSLRAEDTALYYCAKDSPRGELPFDYWGQGTLVTVSS
VL: SYELTQPPSVSVSPGQTARITCSGDALPKKYAYWYQQKSGQAPVLVIYEDSKRPSGIPERFSGSSSGTMATLTISGAQVEDEADYYCYSTDSSGNHRVFGGGTKLTVL
notes: also called CH59 RUA; CH59_RUA
~0.08 µg/mL: EC50 (read off the curve) (AE.A244 V1V2 Tags)
no binding (tested: not given): binding result (D.9009SA V1V2 Tags) | binding result (SIV CPZ US-1 gp140CF) | binding result (AE.97CNG2XF gp140CF) | binding result (A.Q23 V1V2 tags) | binding result (G.con 140CF) | binding result (A.9004SS V1V2 Tags) | binding result (Con 6 120) | binding result (B.62357 140C) | binding result (B.CaseA V1/V2 Tags) | binding result (AE.con env03 40CF) | binding result (gp70 B.CaseA2 V1/V2 [1]) | binding result (B.63521_V1V2 Tags [2]) | binding result (C.CAP206 gp140CF.12) | binding result (B.9021 gp140C) | binding result (B.040 gp140C) | binding result (B.con env03 140CF)

B3: 697D (antibody, V domains shown)
VH: QVQLVQSGAEVKKPGSSVKVSCKASGGNFNTYTISWVRQAPGQGLEWMGRIIPIFGIVNPAQKFPGRVTINVDKSTNTAYMELSSLRSEDTAVYYCATSGVGLHFGYFDYWGQGTQVTVSS
VL: QSVLTQPPSVSGAPGQRVTISCTGSSSNIGAHYDVHWYQQLPGTAPKLLIYGNSNRPSGVPDRFSGSKSGTSASLAITGLQAEDEADYYCQSYDSSLSGYVFGTGTKVTVL
notes: also called mAb 697D; V2 conformational mAb 697D
57.5 nM: Kd (J08 A.92RW020V1V2)
0.008 s⁻¹: koff (J08 A.92RW020V1V2)
0.04 µg/mL: EC50 (gp70 B.CaseA2 V1/V2 [3])
140000 M⁻¹ s⁻¹: kon (J08 A.92RW020V1V2)

B4: 697D reverted unmutated ancestor antibody (antibody, V domains shown)
VH: QVQLVQSGAEVKKPGSSVKVSCKASGGTFSSYTISWVRQAPGQGLEWMGRIIPILGIANYAQKFQGRVTITADKSTSTAYMELSSLRSEDTAVYYCATSGVGLHFGYFDYWGQGTLVTVSS
VL: QSVLTQPPSVSGAPGQRVTISCTGSSSNIGAGYDVHWYQQLPGTAPKLLIYGNSNRPSGVPDRFSGSKSGTSASLAITGLQAEDEADYYCQSYDSSLSGYVFGTGTKVTVL
notes: also called 697D RUA
no binding (tested: 10 ug/ml): binding result (B.63521_V1V2 Tags [4]) | binding result (B.con gp140CF)
